# Laboratory results as given in patent US20210155711A1.
# Key:
# [1] = target: human FcγRI (recombinant, polyhistidine-tagged) (human) (UniProt P12314); test: SPR (BIACORE 3000), His-tagged receptor captured on anti-His IgG, antibody injected; 1:1 steady state fit
# [2] = target: recombinant human FcRn (transmembrane and cytoplasmic domains replaced with a poly-histidine tag) (human) (UniProt P55899); test: … bead competition: unlabelled test antibody against biotinylated human IgG1 CNT06234 for recombinant FcRn, pH 6.4
# [3] = target: human FcγRIIIa (recombinant, Example 1) (human) (UniProt P08637); test: SPR (BIACORE 3000), His-tagged receptor captured on anti-His IgG, antibody injected; 1:1 steady state fit
# [4] = target: human FcγRIIa (recombinant, Example 1; allotype not stated) (human) (UniProt P12318); test: as above
# [5] = target: human FcγRIIa (recombinant, Example 1; allotype not stated) (human) (UniProt P12318); test: … bead competition: unlabelled test antibody against a biotinylated control antibody (human IgG1 CNT06234 by paragraph 15/paragraph 85; paragraph 86 says 'against IgG2') for recombinant FcgRIIa
# [6] = target: human FcγRI (recombinant, polyhistidine-tagged) (human) (UniProt P12314); test: SPR (BIACORE 3000), His-tagged receptor captured on anti-His IgG, antibody injected; 1:1 kinetic fit
# [7] = target: human FcγRIIIa (recombinant, Example 1) (human) (UniProt P08637); test: as above
# [8] = target: human FcγRIIa (recombinant, Example 1; allotype not stated) (human) (UniProt P12318); test: … direct binding (avidity) assay: biotinylated test antibody and recombinant His-tagged FcgRIIa on donor and acceptor beads
# human FcγRIIa (recombinant, Example 1; allotype not stated) (human), sequence (P12318 36-218 limits assumed): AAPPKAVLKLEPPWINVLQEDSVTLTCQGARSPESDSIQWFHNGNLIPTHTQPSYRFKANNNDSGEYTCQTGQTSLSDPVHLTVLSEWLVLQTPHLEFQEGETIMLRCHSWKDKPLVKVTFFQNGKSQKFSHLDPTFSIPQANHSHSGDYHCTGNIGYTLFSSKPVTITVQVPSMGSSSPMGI
# human FcγRI (recombinant, polyhistidine-tagged) (human), sequence (P12314 16-288 limits assumed): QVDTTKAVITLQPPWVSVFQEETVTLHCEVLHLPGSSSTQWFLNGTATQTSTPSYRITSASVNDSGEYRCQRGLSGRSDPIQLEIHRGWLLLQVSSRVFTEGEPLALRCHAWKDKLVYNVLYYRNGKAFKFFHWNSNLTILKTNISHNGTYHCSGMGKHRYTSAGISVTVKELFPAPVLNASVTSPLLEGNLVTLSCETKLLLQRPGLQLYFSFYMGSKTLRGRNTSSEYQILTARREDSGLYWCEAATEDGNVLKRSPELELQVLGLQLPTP
# human FcγRIIIa (recombinant, Example 1) (human), sequence (P08637 17-208 F176V limits assumed): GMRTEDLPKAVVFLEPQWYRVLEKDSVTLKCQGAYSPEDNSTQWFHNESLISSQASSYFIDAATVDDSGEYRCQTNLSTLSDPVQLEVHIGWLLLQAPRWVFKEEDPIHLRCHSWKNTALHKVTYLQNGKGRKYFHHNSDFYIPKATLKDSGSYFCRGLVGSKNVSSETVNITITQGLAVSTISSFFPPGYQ
# recombinant human FcRn (transmembrane and cytoplasmic domains replaced with a poly-histidine tag) (human), sequence (P55899 other isoform, or with tags, fused parts or gaps, form in doubt): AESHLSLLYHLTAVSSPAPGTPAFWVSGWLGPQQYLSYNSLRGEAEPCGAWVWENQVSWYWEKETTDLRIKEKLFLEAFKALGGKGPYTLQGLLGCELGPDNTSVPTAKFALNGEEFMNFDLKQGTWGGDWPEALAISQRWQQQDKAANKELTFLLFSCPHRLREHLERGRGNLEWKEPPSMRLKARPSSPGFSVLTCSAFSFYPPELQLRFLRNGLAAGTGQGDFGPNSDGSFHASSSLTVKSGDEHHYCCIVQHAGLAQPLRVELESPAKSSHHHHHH
Substance,Kd [1] [µM],IC50 (read off the curve) [2] [mg/mL],Kd [3] [µM],Kd [4] [nM],IC50 (read off the curve) [5] [mg/mL],Kd [6] [nM],Kd [7] [nM],EC50 (read off the curve) [8] [ng/mL]
"IgG1 Ag (human IgG1 N297A, aglycosylated, anti-Her2/neu construct) (antibody)",3.7,0.1,,,,,,
"IgG2c4b (human IgG2 V234A, G237A, H268Q, V309L, A330S, P331S, anti-Her2/neu construct) (antibody)",38,0.06,,170000,0.1,,,
"IgG2c4c (human IgG2 V234A, G237A, H268A, V309L, A330S, P331S, anti-Her2/neu construct) (antibody)",,,,19000,0.06,44,640,
"IgG2c4e (human IgG2 P233S, V234A, G237A, P238S, H268A, V309L, A330S, P331S, anti-Her2/neu construct) (antibody)",,0.1,,,,,,
"IgG2m4 (human IgG2 H268Q, V309L, A330S, P331S, anti-Her2/neu construct) (antibody)",210,0.08,95,2700,0.03,,,200
"IgG4 A/A (human IgG4 S228P, F234A, L235A, anti-Her2/neu construct) (antibody)",15,0.1,55,150000,,,,

# Results, then the substance that gave them:
Kd [1] [µM],IC50 (read off the curve) [2] [mg/mL],Kd [3] [µM],Kd [4] [nM],IC50 (read off the curve) [5] [mg/mL],Kd [6] [nM],Kd [7] [nM],EC50 (read off the curve) [8] [ng/mL],Substance
160,0.06,85,2200,0.02,,,,"IgG2c4a (human IgG2 H268A, V309L, A330S, P331S, anti-Her2/neu construct) (antibody)"
,0.07,,1700,0.006,13,,100,"huIgG1 (wild type human IgG1 isotype antibody, anti-Her2/neu construct)"
120,0.08,41,1000,0.05,,,200,"huIgG2 (wild type human IgG2 isotype antibody, anti-Her2/neu construct)"
